Reference: IntAct's records for PubMed 11641419

B1: Prolactin-releasing peptide receptor (Homo sapiens), P49683 (parent)
chain: MASSTTRGPRVSDLFSGLPPAVTTPANQSAEASAGNGSVAGADAPAVTPFQSLQLVHQLKGLIVLLYSVVVVVGLVGNCLLVLVIARVRRLHNVTNFLIGNLALSDVLMCTACVPLTLAYAFEPRGWVFGGGLCHLVFFLQPVTVYVSVFTLTTIAVDRYVVLVHPLRRRISLRLSAYAVLAIWALSAVLALPAAVHTYHVELKPHDVRLCEEFWGSQERQRQLYAWGLLLVTYLLPLLVILLSYVRVSVKLRNRVVPGCVTQSQADWDRARRRRTFCLLVVIVVVFAVCWLPLHVFNLLRDLDPHAIDPYAFGLVQLLCHWLAMSSACYNPFIYAWLHDSFREELRKLLVAWPRKIAPHGQNMTVSVVI

Variants of: B1
Conditions: with grip1_human GRIP1, Q9Y3R0
grip1_human GRIP1, Q9Y3R0, sequence (Q9Y3R0 whole entry): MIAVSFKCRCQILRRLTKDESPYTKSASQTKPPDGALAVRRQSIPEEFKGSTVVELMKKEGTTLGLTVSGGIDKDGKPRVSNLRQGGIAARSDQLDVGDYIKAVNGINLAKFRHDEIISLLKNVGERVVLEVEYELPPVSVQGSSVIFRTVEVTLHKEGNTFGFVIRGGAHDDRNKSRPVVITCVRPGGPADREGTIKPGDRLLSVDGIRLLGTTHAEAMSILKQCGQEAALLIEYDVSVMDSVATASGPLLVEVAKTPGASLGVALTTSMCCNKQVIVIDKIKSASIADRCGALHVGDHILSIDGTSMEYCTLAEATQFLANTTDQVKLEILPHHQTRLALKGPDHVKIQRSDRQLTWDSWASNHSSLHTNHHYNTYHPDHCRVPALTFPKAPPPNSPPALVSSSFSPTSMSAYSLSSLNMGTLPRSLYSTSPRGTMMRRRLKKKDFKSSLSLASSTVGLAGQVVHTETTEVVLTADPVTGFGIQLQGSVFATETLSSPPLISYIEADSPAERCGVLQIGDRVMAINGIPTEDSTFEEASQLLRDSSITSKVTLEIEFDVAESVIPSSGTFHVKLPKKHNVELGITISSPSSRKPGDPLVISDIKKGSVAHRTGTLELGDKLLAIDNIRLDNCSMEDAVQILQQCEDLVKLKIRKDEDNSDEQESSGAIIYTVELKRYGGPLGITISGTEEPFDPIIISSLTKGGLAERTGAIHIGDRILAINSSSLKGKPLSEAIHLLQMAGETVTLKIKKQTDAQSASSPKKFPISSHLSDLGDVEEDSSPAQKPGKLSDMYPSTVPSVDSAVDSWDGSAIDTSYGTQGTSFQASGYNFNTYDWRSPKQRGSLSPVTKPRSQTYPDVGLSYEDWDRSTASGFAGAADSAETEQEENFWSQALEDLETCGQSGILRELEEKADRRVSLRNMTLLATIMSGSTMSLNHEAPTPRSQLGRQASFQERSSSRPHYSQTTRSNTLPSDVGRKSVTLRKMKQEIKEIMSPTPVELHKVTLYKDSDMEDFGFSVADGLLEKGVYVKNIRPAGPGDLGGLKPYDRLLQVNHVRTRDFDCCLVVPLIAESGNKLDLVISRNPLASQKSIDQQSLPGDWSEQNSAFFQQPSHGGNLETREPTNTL
MASSTTRGPRVSDLFSGLPPAVTTPANQSAEASAGNGSVAGADAPAVTPFQSLQLVHQLKGLIVLLYSVVVVVGLVGNCLLVLVIARVRRLHNVTNFLIGNLALSDVLMCTACVPLTLAYAFEPRGWVFGGGLCHLVFFLQPVTVYVSVFTLTTIAVDRYVVLVHPLRRRISLRLSAYAVLAIWALSAVLALPAAVHTYHVELKPHDVRLCEEFWGSQERQRQLYAWGLLLVTYLLPLLVILLSYVRVSVKLRNRVVPGCVTQSQADWDRARRRRTFCLLVVIVVVFAVCWLPLHVFNLLRDLDPHAIDPYAFGLVQLLCHWLAMSSACYNPFIYAWLHDSFREELRKLLVAWPRKIAPHGQNMTVSVVA [I370A] was tested, and the “effect of a mutation on the interaction” value was “disrupting interaction”.
MASSTTRGPRVSDLFSGLPPAVTTPANQSAEASAGNGSVAGADAPAVTPFQSLQLVHQLKGLIVLLYSVVVVVGLVGNCLLVLVIARVRRLHNVTNFLIGNLALSDVLMCTACVPLTLAYAFEPRGWVFGGGLCHLVFFLQPVTVYVSVFTLTTIAVDRYVVLVHPLRRRISLRLSAYAVLAIWALSAVLALPAAVHTYHVELKPHDVRLCEEFWGSQERQRQLYAWGLLLVTYLLPLLVILLSYVRVSVKLRNRVVPGCVTQSQADWDRARRRRTFCLLVVIVVVFAVCWLPLHVFNLLRDLDPHAIDPYAFGLVQLLCHWLAMSSACYNPFIYAWLHDSFREELRKLLVAWPRKIAPHGQNMTVSAVI [V368A] was tested, and the “effect of a mutation on the interaction” value was “disrupting interaction”.
For MASSTTRGPRVSDLFSGLPPAVTTPANQSAEASAGNGSVAGADAPAVTPFQSLQLVHQLKGLIVLLYSVVVVVGLVGNCLLVLVIARVRRLHNVTNFLIGNLALSDVLMCTACVPLTLAYAFEPRGWVFGGGLCHLVFFLQPVTVYVSVFTLTTIAVDRYVVLVHPLRRRISLRLSAYAVLAIWALSAVLALPAAVHTYHVELKPHDVRLCEEFWGSQERQRQLYAWGLLLVTYLLPLLVILLSYVRVSVKLRNRVVPGCVTQSQADWDRARRRRTFCLLVVIVVVFAVCWLPLHVFNLLRDLDPHAIDPYAFGLVQLLCHWLAMSSACYNPFIYAWLHDSFREELRKLLVAWPRKIAPHGQNMTVAVVI [S367A], the “effect of a mutation on the interaction” value was “disrupting interaction”.
